In PMC3269379, “The Host-Pathogen interaction of human cyclophilin A and HIV-1 Vpr requires specific N-terminal and novel C-terminal domains” (BMC Structural Biology, 2011) one finds Kd, koff and kon data, which are given here for 3 substances.

The experiment concerns the target human cyclophilin A (human) (UniProt P62937). In words: SPR. On the technique in general: Surface plasmon resonance follows binding to a sensor surface in real time, without labels.

Like-named read-outs stand apart in the source and are kept apart here.

Sequence of human cyclophilin A (human) (P62937 whole entry): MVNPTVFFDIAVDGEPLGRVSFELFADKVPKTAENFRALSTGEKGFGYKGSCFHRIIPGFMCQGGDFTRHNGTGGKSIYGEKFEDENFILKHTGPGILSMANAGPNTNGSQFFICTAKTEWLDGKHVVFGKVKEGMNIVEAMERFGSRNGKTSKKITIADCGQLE
Sequence of HIV-1 capsid (CA) (O93182 133-363): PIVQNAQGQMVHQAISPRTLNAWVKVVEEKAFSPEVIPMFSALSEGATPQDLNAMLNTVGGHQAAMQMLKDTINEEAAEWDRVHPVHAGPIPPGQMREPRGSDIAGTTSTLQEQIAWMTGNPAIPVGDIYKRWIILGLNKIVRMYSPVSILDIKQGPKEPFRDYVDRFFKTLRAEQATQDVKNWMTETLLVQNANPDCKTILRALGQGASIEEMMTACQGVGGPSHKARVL

Consider “Vpr^75-90 (R76Q, V83I, R80A, T84I) (peptide)”, for which the Kd – broadly, the constant that tells how readily two partners part at equilibrium – worked out at 2.7 µM; the off-rate constant (koff) (as a rule, a measure of how fast the partners let go of each other) stood at 0.095 s⁻¹; the kon – broadly, a measure of how fast the partners come together – is 42000 M⁻¹ s⁻¹.

In turn, Vpr^75-90 (R76Q, V83I, T84I) (peptide) yielded a Kd of 4.7 µM, a koff of 0.071 s⁻¹ and a kon of 16000 M⁻¹ s⁻¹.

On to HIV-1 capsid (CA) (from UniProt O93182), for which the Kd (cited from earlier work) is 16 µM.
